T1: His-tagged WT APPL1 (5−419) (human, UniProt Q9UKG1 5-419)
T1 sequence (looked up): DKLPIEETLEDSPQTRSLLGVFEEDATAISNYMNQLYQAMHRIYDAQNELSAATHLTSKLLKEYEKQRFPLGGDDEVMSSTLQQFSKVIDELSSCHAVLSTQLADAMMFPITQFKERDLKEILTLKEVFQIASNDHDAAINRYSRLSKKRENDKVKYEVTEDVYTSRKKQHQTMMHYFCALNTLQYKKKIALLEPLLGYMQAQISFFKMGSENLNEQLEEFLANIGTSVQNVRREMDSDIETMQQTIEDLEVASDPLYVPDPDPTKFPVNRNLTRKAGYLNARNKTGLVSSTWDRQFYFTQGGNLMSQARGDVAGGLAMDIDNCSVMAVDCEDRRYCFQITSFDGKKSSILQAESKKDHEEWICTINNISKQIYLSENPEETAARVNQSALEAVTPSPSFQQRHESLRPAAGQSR


Assays:
AUC = molecular target: the molecule itself; experiment: AUC
[1] = molecular target: T1, His-tagged WT APPL1 (5−419); experiment: SPR

Row | Kd [1] | koff [1] | kon [1] | Binder | Kd (AUC)
1 |  |  |  | APPL1 BAR domain (residues 5−265), His tag removed (domain or fragment, human) GSHMDKLPIEETLEDSPQTRSLLGVFEEDATAISNYMNQLYQAMHRIYDAQNELSAATHLTSKLLKEYEKQRFPLGGDDEVMSSTLQQFSKVIDELSSCHAVLSTQLADAMMFPITQFKERDLKEILTLKEVFQIASNDHDAAINRYSRLSKKRENDKVKYEVTEDVYTSRKKQHQTMMHYFCALNTLQYKKKIALLEPLLGYMQAQISFFKMGSENLNEQLEEFLANIGTSVQNVRREMDSDIETMQQTIEDLEVASDPLYVPD | 130 nM
2 | 900 ± 700 nM | 0.0012 s⁻¹ | 1300 M⁻¹ s⁻¹ | full-length Rab5-Q79L coupled to the SPR biosensor chip (natural protein, human, UniProt P20339-1 1-215, looked up) MASRGATRPNGPNTGNKICQFKLVLLGESAVGKSSLVLRFVKGQFHEFQESTIGAAFLTQTVCLDDTTVKFEIWDTAGLERYHSLAPMYYRGAQAAIVVYDITNEESFARAKNWVKELQRQASPNIVIALSGNKADLANKRAVDFQEAQSYADDNSLLFMETSAKTSMNVNEIFMAIAKKLPKNEPQNPGANSARGRGVDLTEPTQPTRNQCCSN | 

Reference: article PMC1933402 (The EMBO Journal, 2007)
